The values below are quoted from earlier work in patent US20140212945.

pKd: −log10 of the molar value.

The target of this series is T1, MBNL1 (muscleblind-like 1 protein) (UniProt Q9NR56).
T1 sequence: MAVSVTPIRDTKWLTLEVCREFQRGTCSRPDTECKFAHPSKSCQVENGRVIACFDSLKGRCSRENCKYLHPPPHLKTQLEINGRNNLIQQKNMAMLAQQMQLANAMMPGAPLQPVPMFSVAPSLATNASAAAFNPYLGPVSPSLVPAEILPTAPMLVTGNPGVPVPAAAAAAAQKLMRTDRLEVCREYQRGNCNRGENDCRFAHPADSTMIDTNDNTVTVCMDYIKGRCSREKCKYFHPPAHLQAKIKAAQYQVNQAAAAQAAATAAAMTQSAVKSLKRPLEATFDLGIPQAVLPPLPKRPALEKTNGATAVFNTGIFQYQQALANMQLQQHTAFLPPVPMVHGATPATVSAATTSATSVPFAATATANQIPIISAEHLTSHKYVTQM
As to conditions: CITED; value taken from previous report (ref 15 / ref 13); Table 5 lists the same value for r(CUG)exp.

On to r(CUG)12x2, for which the pKd (commonly −log10 of the Kd, conventionally taken in molar units) was 6.60.
